Measurements as given in publication PMC9381540, “USP21 promotes self-renewal and tumorigenicity of mesenchymal glioblastoma stem cells by deubiquitinating and stabilizing FOXD1” (Cell Death & Disease, 2022).

How the values were obtained:
[1] = target: T1, Flag-USP21 C221A (catalytically inactive mutant) (human, UniProt Q9UK80 1-565, C221A); assay: pull-down; bacterially expressed GST or GST-FOXD1 immobilised (GST Protein Interaction Pull-Down Kit, Thermo Scientific), incubated with Flag-USP21 WT or C221A from HEK293T cells; analysed by Coomassie Brilliant Blue; settings: both partners purified
T1 construct: also called C221A mutant; source: HEK293T, transfected, in lysate (co-IP); for the GST pull-down 'lysed from HEK293T cells' (methods), 'purified recombinant protein' (results)
T1 sequence (looked up): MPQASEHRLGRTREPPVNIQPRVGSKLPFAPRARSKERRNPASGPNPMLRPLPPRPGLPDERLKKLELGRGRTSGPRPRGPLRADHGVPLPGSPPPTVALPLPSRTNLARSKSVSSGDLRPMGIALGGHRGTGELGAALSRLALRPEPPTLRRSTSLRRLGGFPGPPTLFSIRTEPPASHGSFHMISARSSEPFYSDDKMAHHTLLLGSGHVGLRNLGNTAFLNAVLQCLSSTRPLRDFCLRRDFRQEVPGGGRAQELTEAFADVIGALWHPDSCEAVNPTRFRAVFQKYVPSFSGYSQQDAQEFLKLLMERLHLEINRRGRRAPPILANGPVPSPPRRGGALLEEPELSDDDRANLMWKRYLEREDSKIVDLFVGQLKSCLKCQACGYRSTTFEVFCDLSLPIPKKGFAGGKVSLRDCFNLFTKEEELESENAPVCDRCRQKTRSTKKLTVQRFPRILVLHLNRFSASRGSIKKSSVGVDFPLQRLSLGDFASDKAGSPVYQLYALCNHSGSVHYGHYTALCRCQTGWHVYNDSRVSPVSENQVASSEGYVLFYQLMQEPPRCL

[2] = target: T2, Flag-USP21 WT (ubiquitin-specific peptidase 21) (human, UniProt Q9UK80 1-565); assay: as above; settings: both partners purified
T2 construct: ubiquitin-specific peptidase 21 (USP21), wild type; overexpression plasmid bought from GeneChem; source: HEK293T, transfected, in lysate (co-IP); for the GST pull-down 'lysed from HEK293T cells' (methods), 'purified recombinant protein' (results)
T2 sequence (looked up): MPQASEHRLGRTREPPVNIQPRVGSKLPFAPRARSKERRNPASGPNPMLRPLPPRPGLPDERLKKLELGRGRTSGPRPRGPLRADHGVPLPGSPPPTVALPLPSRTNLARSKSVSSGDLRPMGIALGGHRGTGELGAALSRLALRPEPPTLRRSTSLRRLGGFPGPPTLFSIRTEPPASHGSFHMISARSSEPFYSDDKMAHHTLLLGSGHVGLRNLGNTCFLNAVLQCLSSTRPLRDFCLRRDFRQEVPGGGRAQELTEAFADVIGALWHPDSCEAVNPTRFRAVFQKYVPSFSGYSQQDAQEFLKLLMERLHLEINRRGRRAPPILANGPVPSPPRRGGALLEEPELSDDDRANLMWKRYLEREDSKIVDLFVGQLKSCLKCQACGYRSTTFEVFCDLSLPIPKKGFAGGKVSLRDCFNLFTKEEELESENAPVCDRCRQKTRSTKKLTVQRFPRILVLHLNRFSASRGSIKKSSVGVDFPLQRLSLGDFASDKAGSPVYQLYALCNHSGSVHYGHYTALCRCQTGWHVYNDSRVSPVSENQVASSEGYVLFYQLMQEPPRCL

B1: GST-FOXD1 (natural protein, UniProt Q16676 1-465, looked up)
chain: MTLSTEMSDASGLAEETDIDVVGEGEDEEDEEEEDDDEGGGGGPRLAVPAQRRRRRRSYAGEDELEDLEEEEDDDDILLAPPAGGSPAPPGPAPAAGAGAGGGGGGGGAGGGGSAGSGAKNPLVKPPYSYIALITMAILQSPKKRLTLSEICEFISGRFPYYREKFPAWQNSIRHNLSLNDCFVKIPREPGNPGKGNYWTLDPESADMFDNGSFLRRRKRFKRQPLLPPNAAAAESLLLRGAGAAGGAGDPAAAAALFPPAPPPPPHAYGYGPYGCGYGLQLPPYAPPSALFAAAAAAAAAAAFHPHSPPPPPPPHGAAAELARTAFGYRPHPLGAALPGPLPASAAKAGGPGASALARSPFSIESIIGGSLGPAAAAAAAAQAAAAAQASPSPSPVAAPPAPGSSGGGCAAQAAVGPAAALTRSLVAAAAAAASSVSSSAALGTLHQGTALSSVENFTARISNC
notes: Forkhead box D1 (FOXD1) fused to GST; also called immobilized GST-FOXD1; purified GST-FOXD1; source: bacterially expressed; 'purified' (results)
B1: binds [1]; binds [2].
